Measured values published in PMC6650976, “Experimental Insight into the Structural and Functional Roles of the ‘Black’ and ‘Gray’ Clusters in Recoverin, a Calcium Binding Protein with Four EF-Hand Motifs” (Molecules, 2019).

Legend:
[1] = target: the molecule itself; assay: cross-linking; Mg2+-loaded proteins: 0.02% glutaric aldehyde, 16 h, 20 °C, protein 1 mg/mL, 20 mM Tricine-KOH pH 7.4, 50 mM KCl, 1 mM DTT, 1 mM MgCl2, 1 mM EGTA; SDS-PAGE, Coomassie, densitometry; self-association
Summary of the method: (§1)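 Recombinant human recoverin or its alanine-substituted forms, expressed in E. coli and purified, were freed of metal ions by gel filtration. They were crosslinked at 1.0 mg/mL with 0.02% glutaric aldehyde in 20 mM Tricine-KOH pH 7.4, 50 mM KCl, 1 mM DTT plus EDTA, MgCl2/EGTA or CaCl2, for 16 h at 20 °C. Products (5 µg/lane, 15% resolving SDS-PAGE) were Coomassie-stained, scanned and quantified in Quantity One as percentage per oligomer band.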

[2] = target: the molecule itself; assay: cross-linking; Ca2+-loaded proteins: 0.02% glutaric aldehyde, 16 h, 20 °C, protein 1 mg/mL, 20 mM Tricine-KOH pH 7.4, 50 mM KCl, 1 mM DTT, 1 mM CaCl2; SDS-PAGE, Coomassie, densitometry; self-association
Summary of the method: as §1

[3] = target: the molecule itself; assay: cross-linking; apo-proteins: 0.02% glutaric aldehyde, 16 h, 20 °C, protein 1 mg/mL, 20 mM Tricine-KOH pH 7.4, 50 mM KCl, 1 mM DTT, 1 mM EDTA; SDS-PAGE, Coomassie, densitometry; self-association
Summary of the method: as §1

B1: human recoverin mutant Y86A (natural protein, UniProt P35243 1-200, looked up)
chain: MGNSKSGALSKEILEELQLNTKFSEEELCSWYQSFLKDCPTGRITQQQFQSIYAKFFPDTDPKAYAQHVFRSFDSNLDGTLDFKEAVIALHMTTAGKTNQKLEWAFSLYDVDGNGTISKNEVLEIVMAIFKMITPEDVKLLPDDENTPEKRAEKIWKYFGKNDDDKLTEKEFIEGTLANKEILRLIQFEPQKVKEKMKNA
modifications: myristoylated (fraction of non-myristoylated forms did not exceed 16%)
notes: recoverin, human, UniProt P35243, N-terminal 'black' cluster mutant; Parent construct as m1; source: E. coli, expressed and purified similarly to the rWT protein (phenyl-Sepharose, Toyopearl SuperQ-650M)
For B1, the “Dimer 50 kDa, %” value [1] was 33.9 ± 0.2%, the “Monomer 20 kDa, %” value [1] was 66.1 ± 0.2% and the “Dimer 50 kDa, %” value [2] was 28.5 ± 1.4%. The “Monomer 20 kDa, %” value [2] was 35.8 ± 2.7%, the “Multimer 100–250 kDa, %” value [2] was 14.2 ± 0.6% and the “Trimer 70–100 kDa, %” value [2] was 21.5 ± 0.7%. For the same protein, the “Dimer 50 kDa, %” value [3] was 30.7 ± 3% and the “Monomer 20 kDa, %” value [3] was 69.3 ± 3%.
